T1: human PAC1 receptor (human, UniProt P41586 21-468)
T1 sequence: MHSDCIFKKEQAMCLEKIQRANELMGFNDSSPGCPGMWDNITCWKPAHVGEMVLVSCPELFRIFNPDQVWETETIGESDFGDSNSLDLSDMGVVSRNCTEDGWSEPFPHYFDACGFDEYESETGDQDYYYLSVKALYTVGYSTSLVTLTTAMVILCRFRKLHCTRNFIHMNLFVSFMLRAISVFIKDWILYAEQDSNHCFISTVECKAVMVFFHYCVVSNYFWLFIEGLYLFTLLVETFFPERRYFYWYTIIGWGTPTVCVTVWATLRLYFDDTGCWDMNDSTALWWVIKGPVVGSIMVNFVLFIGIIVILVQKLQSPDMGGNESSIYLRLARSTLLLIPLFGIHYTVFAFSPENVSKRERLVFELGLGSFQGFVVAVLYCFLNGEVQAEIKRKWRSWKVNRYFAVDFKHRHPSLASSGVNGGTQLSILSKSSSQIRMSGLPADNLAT


How the values were obtained:
human CGRP receptor = human CGRP receptor (human, UniProt Q16602 23-461; O60894 27-148); assay: cell-based or functional assay
human PAC1 receptor = molecular target: T1, human PAC1 receptor; assay: cell-based or functional assay

Sequence of human CGRP receptor (Q16602 23-461 limits assumed, chain 1 of 2): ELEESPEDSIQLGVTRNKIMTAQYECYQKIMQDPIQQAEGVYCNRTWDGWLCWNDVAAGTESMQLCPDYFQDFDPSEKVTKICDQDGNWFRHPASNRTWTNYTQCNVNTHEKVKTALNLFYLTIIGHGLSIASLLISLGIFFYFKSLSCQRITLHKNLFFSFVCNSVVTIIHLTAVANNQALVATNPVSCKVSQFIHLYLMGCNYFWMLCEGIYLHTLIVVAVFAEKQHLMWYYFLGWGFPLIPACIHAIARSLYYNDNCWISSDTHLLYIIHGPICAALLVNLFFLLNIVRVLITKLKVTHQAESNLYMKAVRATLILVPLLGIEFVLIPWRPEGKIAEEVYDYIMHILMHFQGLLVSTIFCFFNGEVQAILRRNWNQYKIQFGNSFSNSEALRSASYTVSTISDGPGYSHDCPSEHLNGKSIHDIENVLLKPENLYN
Sequence of human CGRP receptor (O60894 27-148 limits assumed, chain 2 of 2): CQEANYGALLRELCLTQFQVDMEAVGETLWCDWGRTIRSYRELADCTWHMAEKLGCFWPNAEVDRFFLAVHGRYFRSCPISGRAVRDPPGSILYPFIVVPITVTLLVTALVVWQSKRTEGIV

% inhibition of human CGRPR (human CGRP receptor) [%]	% inhibition of human PAC1 (human PAC1 receptor) [%]	Binder
80	12	iPS:327894 (bispecific antibody, human IgG1, kappa, lambda, N297G) light 1: not shown heavy 1: not shown light 2: QSVLTQPPSVSAAPGQKVTISCSGSSSNIGNNYVSWYQQLPGTAPKLLIYDNNKRPSGIPDRFSGSKSGTSATLGITGLQTGDEADYYCGTWDSRLSAVVFGGGTKLTVLGQPKANPTVTLFPPSSEELQANKATLVCLISDFYPGAVTVAWKADGSPVKAGVETTKPSKQSNNKYAAKSYLSLTPEQWKSHRSYSCQVTHEGSTVEKTVAPTECS heavy 2: QVQLVESGGGVVQPGRSLRLSCAASGFTFSSFGMHWVRQAPGKGLEWVAVISFDGSIKYSVDSVKGRFTISRDNSKNTLFLQMNSLRAEDTAVYYCARDRLNYYESSGYYHYKYYGMAVWGQGTTVTVSSASTKGPSVFPLAPSSKSTSGGTAALGCLVKDYFPEPVTVSWNSGALTSGVHTFPAVLQSSGLYSLESVVTVPSSSLGTQTYICNVNHKPSNTKVDKKVEPKSCDKTHTCPPCPAPELLGGPSVFLFPPKPKDTLMISRTPEVTCVVVDVSHEDPEVKFNWYVDGVEVHNAKTKPCEEQYGSTYRCVSVLTVLHQDWLNGKEYKCKVSNKALPAPIEKTISKAKGQPREPQVYTLPPSRKEMTKNQVSLTCLVKGFYPSDIAVEWESNGQPENNYKTTPPVLKSDGSFFLYSKLTVDKSRWQQGNVFSCSVMHEALHNHYTQKSLSLSPGK
80	15	iPS:327895 (bispecific antibody, human IgG1, kappa, lambda, N297G) light 1: not shown heavy 1: not shown light 2: QSVLTQPPSVSAAPGQKVTISCSGSSSNIGNNYVSWYQQLPGTAPKLLIYDNNKRPSGIPDRFSGSKSGTSATLGITGLQTGDEADYYCGTWDSRLSAVVFGKGTKLTVLGQPKANPTVTLFPPSSEELQANKATLVCLISDFYPGAVTVAWKADGSPVKAGVETTKPSKQSNNKYAAKSYLSLTPEQWKSHRSYSCQVTHEGSTVEKTVAPTECS heavy 2: QVQLVESGGGVVQPGRSLRLSCAASGFTFSSFGMHWVRQAPGKELEWVAVISFDGSIKYSVDSVKGRFTISRDNSKNTLFLQMNSLRAEDTAVYYCARDRLNYYESSGYYHYKYYGMAVWGQGTTVTVSSASTKGPSVFPLAPSSKSTSGGTAALGCLVKDYFPEPVTVSWNSGALTSGVHTFPAVLQSSGLYSLESVVTVPSSSLGTQTYICNVNHKPSNTKVDKKVEPKSCDKTHTCPPCPAPELLGGPSVFLFPPKPKDTLMISRTPEVTCVVVDVSHEDPEVKFNWYVDGVEVHNAKTKPCEEQYGSTYRCVSVLTVLHQDWLNGKEYKCKVSNKALPAPIEKTISKAKGQPREPQVYTLPPSRKEMTKNQVSLTCLVKGFYPSDIAVEWESNGQPENNYKTTPPVLKSDGSFFLYSKLTVDKSRWQQGNVFSCSVMHEALHNHYTQKSLSLSPGK

Second part, the binder before the results:

Binder	% inhibition of human CGRPR (human CGRP receptor) [%]	% inhibition of human PAC1 (human PAC1 receptor) [%]
iPS:327883 (bispecific antibody, human IgG1, kappa, lambda, N297G) light 1: DIQMTQSPSSLSASVGDRITITCRASQSISRYLNWYQQKPGKAPKLLIYAASSLQSGIPSRFSGSGSGTDFTLTINSLQPEDFATYFCQQSYSPPFTFGQGTKVDIKRTVAAPSVFIFPPSDEQLKSGTASVVCLLNNFYPREAKVQWKVDNALQSGNSQESVTEQDSKDSTYSLESTLTLSKADYEKHKVYACEVTHQGLSSPVTKSFNRGEC heavy 1: not shown light 2: QSVLTQPPSVSAAPGQKVTISCSGSSSNIGNNYVSWYQQLPGTAPKLLIYDNNKRPSGIPDRFSGSKSGTSATLGITGLQTGDEADYYCGTWDSRLSAVVFGGGTKLTVLGQPKANPTVTLFPPSSEELQANKATLVCLISDFYPGAVTVAWKADGSPVKAGVETTKPSKQSNNKYAAKSYLSLTPEQWKSHRSYSCQVTHEGSTVEKTVAPTECS heavy 2: QVQLVESGGGVVQPGRSLRLSCAASGFTFSSFGMHWVRQAPGKGLEWVAVISFDGSIKYSVDSVKGRFTISRDNSKNTLFLQMNSLRAEDTAVYYCARDRLNYYDSSGYYHYKYYGMAVWGQGTTVTVSSASTKGPSVFPLAPSSKSTSGGTAALGCLVKDYFPEPVTVSWNSGALTSGVHTFPAVLQSSGLYSLESVVTVPSSSLGTQTYICNVNHKPSNTKVDKKVEPKSCDKTHTCPPCPAPELLGGPSVFLFPPKPKDTLMISRTPEVTCVVVDVSHEDPEVKFNWYVDGVEVHNAKTKPCEEQYGSTYRCVSVLTVLHQDWLNGKEYKCKVSNKALPAPIEKTISKAKGQPREPQVYTLPPSRKEMTKNQVSLTCLVKGFYPSDIAVEWESNGQPENNYKTTPPVLKSDGSFFLYSKLTVDKSRWQQGNVFSCSVMHEALHNHYTQKSLSLSPGK	77	27
iPS:327893 (bispecific antibody, human IgG1, kappa, lambda, N297G) light 1: DIQMTQSPSSLSASVGDRITITCRASQSISRYLNWYQQKPGKAPKLLIYAASSLQSGIPSRFSGSGSGTDFTLTINSLQPEDFATYFCQQSYSPPFTFGQGTKVDIKRTVAAPSVFIFPPSDEQLKSGTASVVCLLNNFYPREAKVQWKVDNALQSGNSQESVTEQDSKDSTYSLESTLTLSKADYEKHKVYACEVTHQGLSSPVTKSFNRGEC heavy 1: not shown light 2: QSVLTQPPSVSAAPGQKVTISCSGSSSNIGNNYVSWYQQLPGTAPKLLIYDNNKRPSGIPDRFSGSKSGTSATLGITGLQTGDEADYYCGTWDSRLSAVVFGGGTKLTVLGQPKANPTVTLFPPSSEELQANKATLVCLISDFYPGAVTVAWKADGSPVKAGVETTKPSKQSNNKYAAKSYLSLTPEQWKSHRSYSCQVTHEGSTVEKTVAPTECS heavy 2: QVQLVESGGGVVQPGRSLRLSCAASGFTFSSFGMHWVRQAPGKGLEWVAVISFDGSIKYSVDSVKGRFTISRDNSKNTLFLQMNSLRAEDTAVYYCARDRLNYYESSGYYHYKYYGMAVWGQGTTVTVSSASTKGPSVFPLAPSSKSTSGGTAALGCLVKDYFPEPVTVSWNSGALTSGVHTFPAVLQSSGLYSLESVVTVPSSSLGTQTYICNVNHKPSNTKVDKKVEPKSCDKTHTCPPCPAPELLGGPSVFLFPPKPKDTLMISRTPEVTCVVVDVSHEDPEVKFNWYVDGVEVHNAKTKPCEEQYGSTYRCVSVLTVLHQDWLNGKEYKCKVSNKALPAPIEKTISKAKGQPREPQVYTLPPSRKEMTKNQVSLTCLVKGFYPSDIAVEWESNGQPENNYKTTPPVLKSDGSFFLYSKLTVDKSRWQQGNVFSCSVMHEALHNHYTQKSLSLSPGK	74	56
iPS:327884 (bispecific antibody, human IgG1, kappa, lambda, N297G) light 1: not shown heavy 1: not shown light 2: QSVLTQPPSVSAAPGQKVTISCSGSSSNIGNNYVSWYQQLPGTAPKLLIYDNNKRPSGIPDRFSGSKSGTSATLGITGLQTGDEADYYCGTWDSRLSAVVFGGGTKLTVLGQPKANPTVTLFPPSSEELQANKATLVCLISDFYPGAVTVAWKADGSPVKAGVETTKPSKQSNNKYAAKSYLSLTPEQWKSHRSYSCQVTHEGSTVEKTVAPTECS heavy 2: QVQLVESGGGVVQPGRSLRLSCAASGFTFSSFGMHWVRQAPGKGLEWVAVISFDGSIKYSVDSVKGRFTISRDNSKNTLFLQMNSLRAEDTAVYYCARDRLNYYDSSGYYHYKYYGMAVWGQGTTVTVSSASTKGPSVFPLAPSSKSTSGGTAALGCLVKDYFPEPVTVSWNSGALTSGVHTFPAVLQSSGLYSLESVVTVPSSSLGTQTYICNVNHKPSNTKVDKKVEPKSCDKTHTCPPCPAPELLGGPSVFLFPPKPKDTLMISRTPEVTCVVVDVSHEDPEVKFNWYVDGVEVHNAKTKPCEEQYGSTYRCVSVLTVLHQDWLNGKEYKCKVSNKALPAPIEKTISKAKGQPREPQVYTLPPSRKEMTKNQVSLTCLVKGFYPSDIAVEWESNGQPENNYKTTPPVLKSDGSFFLYSKLTVDKSRWQQGNVFSCSVMHEALHNHYTQKSLSLSPGK	78	8
iPS:327885 (bispecific antibody, human IgG1, kappa, lambda, N297G) light 1: not shown heavy 1: not shown light 2: QSVLTQPPSVSAAPGQKVTISCSGSSSNIGNNYVSWYQQLPGTAPKLLIYDNNKRPSGIPDRFSGSKSGTSATLGITGLQTGDEADYYCGTWDSRLSAVVFGKGTKLTVLGQPKANPTVTLFPPSSEELQANKATLVCLISDFYPGAVTVAWKADGSPVKAGVETTKPSKQSNNKYAAKSYLSLTPEQWKSHRSYSCQVTHEGSTVEKTVAPTECS heavy 2: QVQLVESGGGVVQPGRSLRLSCAASGFTFSSFGMHWVRQAPGKELEWVAVISFDGSIKYSVDSVKGRFTISRDNSKNTLFLQMNSLRAEDTAVYYCARDRLNYYDSSGYYHYKYYGMAVWGQGTTVTVSSASTKGPSVFPLAPSSKSTSGGTAALGCLVKDYFPEPVTVSWNSGALTSGVHTFPAVLQSSGLYSLESVVTVPSSSLGTQTYICNVNHKPSNTKVDKKVEPKSCDKTHTCPPCPAPELLGGPSVFLFPPKPKDTLMISRTPEVTCVVVDVSHEDPEVKFNWYVDGVEVHNAKTKPCEEQYGSTYRCVSVLTVLHQDWLNGKEYKCKVSNKALPAPIEKTISKAKGQPREPQVYTLPPSRKEMTKNQVSLTCLVKGFYPSDIAVEWESNGQPENNYKTTPPVLKSDGSFFLYSKLTVDKSRWQQGNVFSCSVMHEALHNHYTQKSLSLSPGK	73	7
iPS:327886 (bispecific antibody, human IgG1, kappa, lambda, N297G) light 1: DIQMTQSPSSLSASVGDRITITCRASQSISRYLNWYQQKPGKAPKLLIYAASSLQSGIPSRFSGSGSGTDFTLTINSLQPEDFATYFCQQSYSPPFTFGQGTKVDIKRTVAAPSVFIFPPSDEQLKSGTASVVCLLNNFYPREAKVQWKVDNALQSGNSQESVTEQDSKDSTYSLESTLTLSKADYEKHKVYACEVTHQGLSSPVTKSFNRGEC heavy 1: not shown light 2: QSVLTQPPSVSAAPGQKVTISCSGSSSNIGNNYVSWYQQLPGTAPKLLIYDNNKRPSGIPDRFSGSKSGTSATLGITGLQTGDEADYYCGTWDSRLSAVVFGGGTKLTVLGQPKANPTVTLFPPSSEELQANKATLVCLISDFYPGAVTVAWKADGSPVKAGVETTKPSKQSNNKYAAKSYLSLTPEQWKSHRSYSCQVTHEGSTVEKTVAPTECS heavy 2: QVQLVESGGGVVQPGRSLRLSCAASGFTFSSFGMHWVRQAPGKGLEWVAVISFDGSIKYSVDSVKGRFTISRDNSKNTLFLQMNSLRAEDTAVYYCARDRLNYYDSSGYYHYKYYGMAVWGQGTTVTVSSASTKGPSVFPLAPSSKSTSGGTAALGCLVKDYFPEPVTVSWNSGALTSGVHTFPAVLQSSGLYSLESVVTVPSSSLGTQTYICNVNHKPSNTKVDKKVEPKSCDKTHTCPPCPAPELLGGPSVFLFPPKPKDTLMISRTPEVTCVVVDVSHEDPEVKFNWYVDGVEVHNAKTKPCEEQYGSTYRCVSVLTVLHQDWLNGKEYKCKVSNKALPAPIEKTISKAKGQPREPQVYTLPPSRKKMTKNQVSLTCLVKGFYPSDIAVEWESNGQPENNYKTTPPVLKSDGSFFLYSKLTVDKSRWQQGNVFSCSVMHEALHNHYTQKSLSLSPGK	72	65

Source: patent US20170306033A1 (Amgen, published 2017)
